Test results reported in patent US20110039773A1.

Key:
Assay in all cases: cell-based or functional assay
[1] = target: BMP-7 R48Q/E60K/Y65N (human) (UniProt P18075)
[2] = target: BMP-7 Y78H (human) (UniProt P18075)
[3] = target: BMP-6 (human) (UniProt P22004)
[4] = target: Rev K60E (revertant of 80-1) (human) (UniProt P18075)
[5] = target: BMP-7 (human) (UniProt P18075)
[6] = target: BMP-7 E60K (human) (UniProt P18075)

UniProt P22004, sequence (P22004 375-513): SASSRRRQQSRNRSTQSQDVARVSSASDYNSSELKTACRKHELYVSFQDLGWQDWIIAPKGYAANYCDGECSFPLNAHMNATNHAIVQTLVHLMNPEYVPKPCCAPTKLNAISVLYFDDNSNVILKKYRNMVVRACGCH

- relative activity at 1000 ng/ml of noggin, reporter gene assay, conditioned media [1]: 63%
- relative activity at 1000 ng/ml of noggin, reporter gene assay, conditioned media [2]: 31%
- BMP-induced ID-1 gene expression by QPCR in hMSCs, BMP 50 ng/ml, Noggin 1.5 ug/ml, level against background (times background) [3]: 2
- maximum percent inhibition by Noggin of BMP-induced luciferase activity, A549-BRE cells, BMP 150 ng/ml [3]: 25%
- relative activity at 1000 ng/ml of noggin, reporter gene assay, conditioned media [3]: 73%
- relative activity in the presence of noggin at 100 ng/ml (N1), reporter gene assay [4]: 86%
- relative activity in the presence of noggin at 500 ng/ml (N2), reporter gene assay [4]: 51%
- relative activity in the presence of noggin at 1000 ng/ml (N3), reporter gene assay [4]: 32%
- relative activity at 1000 ng/ml of noggin, reporter gene assay, conditioned media [5]: 15%
- relative activity at 1000 ng/ml of noggin, reporter gene assay, conditioned media [6]: 53%
B1: Noggin (protein, UniProt Q13253 28-232, looked up)
chain: QHYLHIRPAPSDNLPLVDLIEHPDPIFDPKEKDLNETLLRSLLGGHYDPGFMATSPPEDRPGGGGGAAGGAEDLAELDQLLRQRPSGAMPSEIKGLEFSEGLAQGKKQRLSKKLRRKLQMWLWSQTFCPVLYAWNDLGSRFWPRYVKVGSCFSKRSCSVPEGMVCKPSKSVHLTVLRWRCQRRGGQRCGWIPIQYPIISECKCSC
